Test [1] addresses full length human PSMA (human) (UniProt Q04609). Put plainly: FACS, 15 ug/ml on LNCaP cells, PE goat anti-mouse IgG (control of FIG. 29 study). (A flow cytometer gives signals particle by particle.)
Test [2] has the same target. The test is described as follows: FACS, 15 ug/ml on LNCaP cells, PE goat anti-mouse IgG (control of FIG. 24 study).
For test [3] the target is unchanged. Put plainly: FACS, 15 ug/ml on LNCaP cells, PE goat anti-mouse IgG (control of FIG. 19 study).
The target is the same in test [4]. Put plainly: FACS, 15 ug/ml on LNCaP cells, PE goat anti-mouse IgG (control of FIG. 13 study).

This is an account of results in patent US20130295110A1.

full length human PSMA (human), sequence (Q04609 whole entry): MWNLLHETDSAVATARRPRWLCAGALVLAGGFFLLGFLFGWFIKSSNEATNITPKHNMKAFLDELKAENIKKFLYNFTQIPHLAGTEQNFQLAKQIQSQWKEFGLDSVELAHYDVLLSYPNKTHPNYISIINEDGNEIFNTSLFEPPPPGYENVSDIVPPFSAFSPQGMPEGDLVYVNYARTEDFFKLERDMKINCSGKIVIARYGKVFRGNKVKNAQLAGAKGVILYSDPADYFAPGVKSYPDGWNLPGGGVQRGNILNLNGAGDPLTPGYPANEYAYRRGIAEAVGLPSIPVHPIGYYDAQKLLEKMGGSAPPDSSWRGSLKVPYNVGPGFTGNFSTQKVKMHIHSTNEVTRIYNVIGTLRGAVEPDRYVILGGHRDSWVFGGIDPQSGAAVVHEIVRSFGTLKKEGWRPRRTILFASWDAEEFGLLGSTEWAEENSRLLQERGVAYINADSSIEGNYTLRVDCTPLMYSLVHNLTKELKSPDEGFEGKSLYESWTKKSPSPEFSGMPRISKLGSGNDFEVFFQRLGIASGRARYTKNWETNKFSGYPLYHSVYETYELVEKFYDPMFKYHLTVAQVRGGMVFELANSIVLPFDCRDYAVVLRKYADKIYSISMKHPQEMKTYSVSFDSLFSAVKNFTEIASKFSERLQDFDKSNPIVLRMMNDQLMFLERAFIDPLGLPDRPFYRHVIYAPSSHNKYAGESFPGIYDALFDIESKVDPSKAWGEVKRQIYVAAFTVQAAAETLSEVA

Take “mouse anti-human PSMA monoclonal antibody, clone J591-A”: the results for the fold change in MFI over secondary antibody alone in test [1], in test [2] and in test [3] were 14.3 fold, 45.3 fold and 45.3 fold, respectively. Moreover, in test [4], the fold-change in MFI over secondary antibody alone was 45.3 fold.
